Measured values as given in publication doi:10.1101/2025.02.22.639503 (bioRxiv, 2025).
Values joined by “and” are separate entries in the source; they are usually repeats but may differ in a detail not shown here. Identical values can stand only once.

T1: HSV-1 terminase subunit pUL28 (herpes simplex virus 1 (HSV-1, strain …, UniProt P10212 1-785))
T1 sequence: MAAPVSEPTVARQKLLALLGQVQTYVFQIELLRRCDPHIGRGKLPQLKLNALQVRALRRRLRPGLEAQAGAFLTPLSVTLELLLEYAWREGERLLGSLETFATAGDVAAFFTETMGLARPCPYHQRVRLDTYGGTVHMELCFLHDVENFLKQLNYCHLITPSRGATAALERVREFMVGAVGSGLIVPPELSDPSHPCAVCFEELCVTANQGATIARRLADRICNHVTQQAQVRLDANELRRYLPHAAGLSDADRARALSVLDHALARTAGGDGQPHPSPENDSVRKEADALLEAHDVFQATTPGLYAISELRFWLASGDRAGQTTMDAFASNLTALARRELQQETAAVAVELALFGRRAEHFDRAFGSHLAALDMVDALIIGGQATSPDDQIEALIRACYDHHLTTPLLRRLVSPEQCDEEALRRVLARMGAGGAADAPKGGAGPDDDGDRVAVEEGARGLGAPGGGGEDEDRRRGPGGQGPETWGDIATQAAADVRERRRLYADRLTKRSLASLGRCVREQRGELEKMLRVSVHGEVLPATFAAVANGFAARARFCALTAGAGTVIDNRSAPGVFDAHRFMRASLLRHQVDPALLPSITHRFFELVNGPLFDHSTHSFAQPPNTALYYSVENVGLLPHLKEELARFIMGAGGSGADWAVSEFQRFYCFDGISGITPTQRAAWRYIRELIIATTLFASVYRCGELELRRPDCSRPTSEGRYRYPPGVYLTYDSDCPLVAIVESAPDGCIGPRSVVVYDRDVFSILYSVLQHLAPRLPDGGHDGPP

B1: HSV-1 terminase subunit pUL15 (His-pUL15) (natural protein)
chain: MFGQQLASDVQQYLERLEKQRQLKVGADEASAGLTMGGDALRVPFLDFATATPKRHQTVVPGVGTLHDCCEHSPLFSAVARRLLFNSLVPAQLKGRDFGGDHTAKLEFLAPELVRAVARLRFKECAPADVVPQRNAYYSVLNTFQALHRSEAFRQLVHFVRDFAQLLKTSFRASSLTETTGPPKKRAKVDVATHGRTYGTLELFQKMILMHATYFLAAVLLGDHAEQVNTFLRLVFEIPLFSDAAVRHFRQRATVFLVPRRHGKTWFLVPLIALSLASFRGIKIGYTAHIRKATEPVFEEIDACLRGWFGSARVDHVKGETISFSFPDGSRSTIVFASSHNTNGIRGQDFNLLFVDEANFIRPDAVQTIMGFLNQANCKIIFVSSTNTGKASTSFLYNLRGAADELLNVVTYICDDHMPRVVTHTNATACSCYILNKPVFITMDGAVRRTADLFLADSFMQEIIGGQARETGDDRPVLTKSAGERFLLYRPSTTTNSGLMAPDLYVYVDPAFTANTRASGTGVAVVGRYRDDYIIFALEHFFLRALTGSAPADIARCVVHSLTQVLALHPGAFRGVRVAVEGNSSQDSAVAIATHVHTEMHRLLASEGADAGSGPELLFYHCEPPGSAVLYPFFLLNKQKTPAFEHFIKKFNSGGVMASQEIVSATVRLQTDPVEYLLEQLNNLTETVSPNTDVRTYSGKRNGASDDLMVAVIMAIYLAAQAGPPHTFAPITRVS
B2: HSV-1 terminase heterotrimer (pUL15, pUL28, pUL33) (complex)
chain 1: B1 chain
chain 2: T1 sequence
chain 3: MAGREGRTRQRTLRDTIPDCALRSQTLESLDARYVSRDGAHDAAVWFEDMTPAELEVVFPTTDAKLNYLSRTQRLASLLTYAGPIKAPDDAAAPQTPDTACVHGELLAAKRERFAAVINRFLDLHQILRG
B3: HSV-1 terminase subunit pUL33 (natural protein)
chain: B2 chain 3

Assays:
Experiment in all cases: native MS
[1] = target: Alcohol Dehydrogenase from Saccharomyces cerevisiae (Saccharomyces cerevisiae) (UniProt P00330)
[2] = target: HSV-1 terminase-associated protein pUL32 (Strep-pUL32) (herpes simplex virus 1 (HSV-1)) (UniProt P10216)
[3] = target: KSHV (HHV-8) pORF68 (TwinStrep-ORF68) (human herpesvirus 8 (KSHV HHV-8))
[4] = target: T1, HSV-1 terminase subunit pUL28
native MS = target: the molecule itself
[5] = target: B1

## Alcohol Dehydrogenase from Saccharomyces cerevisiae (from UniProt P00330 1-348) (enzyme)
[1]
  stoichiometry N: 4

## HSV-1 terminase-associated protein pUL32 (Strep-pUL32) (from UniProt P10216 1-596) (natural protein)
[2]
  stoichiometry N: 3

## KSHV (HHV-8) pORF68 (TwinStrep-ORF68) (natural protein)
[3]
  stoichiometry N: 10

## B1
[4]
  binding result: binds

## B2
Native MS
  stoichiometry N: 2 and 3

## B3
[5]
  binding result: binds
